What is called Kd is the constant that tells how readily two partners part at equilibrium. One may read the koff as the first-order rate constant of dissociation. Lower therefore signals slow dissociation. For orientation: kon means the rate constant with which the complex forms. High values mean faster complex formation, low ones slower complex formation.

Experimental findings from publication PMC4544033, “Real-time analysis of epithelial-mesenchymal transition using fluorescent single-domain antibodies” (Scientific Reports, 2015) are described below.

Assay [1] concerns the target T1, purified vimentin-His6 (Homo sapiens, UniProt P08670).
T1 construct: vimentin, full length; Antigen of immunisation, biopanning and phage ELISA; details in the Supplementary methods; also called recombinant vimentin; full-length vimentin
Briefly: ELISA; solid-phase phage ELISA of 47 single clones after two cycles of biopanning against full-length vimentin. Particulars: one partner purified.

The target of assay [2] is T2, endogenous vimentin (MDCK cells) (Canis lupus familiaris, UniProt A0A8C0N8E3).
T2 construct: vimentin, endogenous in MDCK cells; source: endogenous, MDCK lysate; fixed MDCK cells
Kind of assay: immunostaining of cells or tissue; fixed (4% PFA), permeabilised MDCK, HeLa and MDA-MB-231 cells; ATTO488-labeled nanobodies 10 ug/ml in 3% BSA in PBS, 16 h at 4 °C; compared or co-stained with an anti-vimentin IgG. Particulars: one partner purified.

Assay [3] has as its target T3, GFP-labeled vimentin (Homo sapiens, UniProt P08670).
T3 construct: vimentin, full length; Expression constructs are described in the Supplementary methods; also called GFP-VIM; eGFP-Vimentin; source: HEK293T, transfected, in lysate (soluble protein fraction)
Briefly: BLI; fiber optic sensors with immobilized VB3 and VB6; serial dilutions of the soluble protein fraction of HEK293T cells comprising GFP-VIM or GFP. Particulars: one partner purified. Background: BLI is a label-free optical method that tracks binding on a fibre tip over time.

In assay [4] the target is T2, endogenous vimentin (MDCK cells). Briefly: pull-down; nanobodies covalently coupled to agarose (NHS-Sepharose) beads incubated with soluble protein fractions of cell lines (HeLa, MDCK, A549 or HEK293T), 16 h at 4 °C; immunoblot with anti-vimentin IgG. Conditions: one partner purified. For orientation: A western blot detects proteins with antibodies after separation by electrophoresis.

For assay [5], the target named is T4, vimentin rod domain fused to GFP (Homo sapiens, UniProt P08670).
T4 construct: vimentin central helical rod domain, aa 96-407; also called central helical rod domain (aa 96-407); source: HEK293T, transfected, in lysate
Briefly: pull-down; immobilized nanobodies incubated with lysates of HEK293T cells transfected with GFP fusions of vimentin or its domains; immunoblot with anti-GFP antibody. Conditions: one partner purified.

In assay [6] the target is endogenous vimentin (human cell lines) (human (endogenous in HeLa, HEK293T, A549, MDA-MB-231)) (UniProt P08670).
endogenous vimentin (human cell lines) (human (endogenous in HeLa, HEK293T, A549, MDA-MB-231)), sequence (P08670 whole entry): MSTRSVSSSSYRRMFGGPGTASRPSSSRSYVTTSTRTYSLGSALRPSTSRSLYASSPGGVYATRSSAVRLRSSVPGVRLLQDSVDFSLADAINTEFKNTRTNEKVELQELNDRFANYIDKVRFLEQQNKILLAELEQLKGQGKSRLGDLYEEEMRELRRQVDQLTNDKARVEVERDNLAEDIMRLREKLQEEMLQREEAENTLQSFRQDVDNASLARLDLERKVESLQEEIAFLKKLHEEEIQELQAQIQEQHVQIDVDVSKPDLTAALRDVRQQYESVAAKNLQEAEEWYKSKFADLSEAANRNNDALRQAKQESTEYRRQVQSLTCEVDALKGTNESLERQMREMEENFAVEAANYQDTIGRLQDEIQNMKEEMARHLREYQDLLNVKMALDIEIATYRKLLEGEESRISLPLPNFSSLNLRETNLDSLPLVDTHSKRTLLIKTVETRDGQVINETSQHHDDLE

T3 sequence (P08670 whole entry): as above
T1 sequence (P08670 whole entry): as above
T2 sequence (A0A8C0N8E3 whole entry): as the sequence (P08670 whole entry) above, with A21G, S27T, V60A, N201S, E239D, E251D, V258M, T317N, S412A counted along it
T4 sequence (P08670 96-407): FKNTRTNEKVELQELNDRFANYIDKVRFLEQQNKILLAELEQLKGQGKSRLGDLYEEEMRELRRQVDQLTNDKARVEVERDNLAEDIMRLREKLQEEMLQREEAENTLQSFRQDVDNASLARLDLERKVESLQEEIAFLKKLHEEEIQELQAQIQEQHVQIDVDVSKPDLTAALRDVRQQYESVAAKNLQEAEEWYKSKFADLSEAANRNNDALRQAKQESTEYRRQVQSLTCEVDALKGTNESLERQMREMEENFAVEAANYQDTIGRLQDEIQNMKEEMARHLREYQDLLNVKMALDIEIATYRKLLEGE

B1: VG4, phage-displayed clone (VHH)
VHH: QVQLVESGGGLVQPGGSLRLSCVASGFTFSDYWMYWVRQAPGKGLEWVSGISPGGTTTYADSVKGRFTTSRDNTRNTLYLQMNELKPEDTAVYYCAKDLNWVDSDDYWGRGTQVTVSS
notes: VH domain derived from a conventional IgG by its hallmark residues
As to B1, the binding result in assay [1] is listed as “binds”.

B2: VC4, phage-displayed clone (VHH)
VHH: QVQLVESGGGLVQPGGSLRLSCLASGFSFGSYRMHWVRQAPGKGLEWVSGISSGGGTTYYADSVKGRFTISRDNAKNMLYLQMNNLQPEDTAVYYCLGGDWADWGQGTQVTVSS
notes: as for B1
For the molecule B2, the binding result in assay [1] is on record as “binds”.

B3: VB6 nanobody coupled to ATTO488 (VHH)
VHH: QVQLVESGGGLVQSGGSLTLTCAASGFTFSAASMRWVRQVPGKGLEWVATIDGTGANSYYSESAKGRFTISRDNARNTLRLQMNNLKPDDTAVYYCANFGRNYWGKGTQVTVSS
notes: also called VB6_(ATTO488); source: E. coli, purified, chemically coupled to ATTO488 NHS-ester
In the case of B3, the binding result in assay [2] is “binds”.

B4: VB6 nanobody (VHH)
VHH: QVQLVESGGGLVQSGGSLTLTCAASGFTFSAASMRWVRQVPGKGLEWVATIDGTGANSYYSESAKGRFTISRDNARNTLRLQMNNLKPDDTAVYYCANFGRNYWGKGTQVTVSS
notes: Single-domain antibody; Used immobilised on BLI sensors and covalently coupled to NHS-Sepharose; Construct details are in the Supplementary methods; also called Nb VB6; source: E. coli, recombinantly expressed and purified
In assay [3], B4 had a Kd of 37 nM, a koff of 0.0176 s⁻¹ and a kon of 475000 M⁻¹ s⁻¹.

B5: VH3, phage-displayed clone (VHH)
VHH: QVQLVESGGGLAQPGGSLRLSCAASGFTFSSYAMSWVRQAPGKGLEWVSGITSGGSSTYYASSVKGRFTISRDNTKNTLYLQMDNLKSDDTAVYYCAKAWGSASSSRGQGTQVTVSS
notes: as for B1
On to B5, for which the binding result in assay [1] was “binds”.

B6: VE3, phage-displayed clone (VHH)
VHH: QVQLVESGGGLVQPGGSLRLSCAASGSTFRIRTMGWYRQAPGKQRELVAVSTNSGGSVNYADSVKGRFTISIDSVKKTTDLQMNSLKPEDTAVYYCNAYDSDYLDYYGQGTQVTVSS
notes: derived from a heavy-chain-only antibody
Regarding B6, in assay [1], the binding result was “binds”.

B7: VB3 nanobody (VHH)
VHH: QVQLVESGGGSVQAGDSLRLSCAASGNTFSIKVMGWYRQAPGKQRELVAVSTNSGASVNYANSVKGRFTISIDSVKKTTYLQMNSLKPEDTAVYFCNAYDGRYEDYYGQGTQVTVSS
notes: By its hallmark residues derived from a heavy-chain-only antibody; Used immobilised on BLI sensors and covalently coupled to NHS-Sepharose; Construct and purification details are in the Supplementary methods; also called Nb VB3; source: E. coli, recombinantly expressed and purified
In the case of B7, in assay [4], the binding result is “binds”. Further, in assay [5], the binding result is “binds”. In assay [6], this molecule came in with an FRAP in HeLa cells: half time of fluorescence recovery of the chromobody of 4.3 s and an FRAP in HeLa cells: total fluorescence recovery of the chromobody in the photobleached region of 58.4%.

B8: VF6, phage-displayed clone (VHH)
VHH: DVQLVESGGGLVEAGGSLRLSCAASGRTFSPYVMGWYRQAPGNQRELVAVSTNSGASVNYANSVKGRFTISIDSVKKTTYLQMNSLKPEDTAVYFCNAYDGRYEDYYGQGTQVTVSS
notes: as for B6
On to B8, for which the binding result in assay [1] is “binds”.

B9: VG1, phage-displayed clone (VHH)
VHH: DVQLVESGGGLVQAGGSLKLSCKASGSTYSIHVYGWYRQAPGKQRELVAVSTNSGASVNYANSVKGRFTISIDSVKKTTYLQMNSLKPEDTAVYFCNAYDGRYEDYYGQGTQVTVSS
notes: as for B6
As for B9, in assay [1], the binding result is recorded as “binds”.
